Assay results reported in patent US20240254225A1 (INOTREM, published 2024).
Numbering of substitutions follows the chain as printed. Values belong to the binder of their own block, whether it stands above or below them.

Assays:
[1] = target: T1, recombinant cynomolgus monkey TREM-1 (cynomolgus monkey, UniProt A0A2K5VHG8 21-204); assay: SPR, Fab immobilised, cynomolgus TREM-1 injected; replicate 1
T1 construct: Soluble recombinant protein injected as SPR analyte; construct not described; also called cTREM-1; cynomolgus TREM-1
T1 sequence: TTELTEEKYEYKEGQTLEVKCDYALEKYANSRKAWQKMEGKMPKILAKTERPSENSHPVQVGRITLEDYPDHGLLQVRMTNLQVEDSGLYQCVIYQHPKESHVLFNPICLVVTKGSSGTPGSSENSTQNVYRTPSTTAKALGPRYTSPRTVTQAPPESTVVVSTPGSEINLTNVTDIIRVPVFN
Description: (§1) Surface plasmon resonance (SPR): in order to evaluate the interaction kinetics for TREM-1 antibodies or Fabs to hTREM-1 (human TREM-1) and cTREM-1 (cynomolgus monkey TREM-1), surface plasmon resonance (SPR) assays were carried out (Biacore™ T200, GE Healthcare Biosciences). The anti-human Fc antibodies (Cytiva) were immobilized on CM5 sensor chip in order to evaluate IgG1 affinities and Fabs were directly immobilized on the chip. Immobilization experiments were performed at 25° C. using HBS-EP+1× running buffer (10 mM HEPES, 150 mM NaCl, 3 mM EDTA, 0.05% surfactant P20, pH 7.4). The anti-human Fc antibodies or Fabs were diluted in 10 mM sodium acetate at acidic pH before the immobilization procedure using amine coupling on the dextran matrix of the sensor chips. […] Following these injections, ethanolamine was injected to deactivate the surface. The immobilization wizard was used to obtain several thousand of immobilized RU (resonance units). The immobilization level was chosen in order to have a proper covering of the sensor chip surface. […] Binding of hTREM-1 or cTREM-1 proteins was conducted by injecting analyte over all flow cells. […] The concentrations were evaluated using the Single Cycle Kinetics method. This approach consists of a sequential injection of increasing concentration of the analyte, with a single regeneration step using a magnesium chloride buffer (Cytiva) at the end of the cycle. Binding affinity of TREM-1 antibodies or Fabs with hTREM-1 or cTREM-1 was quantified by determination of the equilibrium dissociation constant (KD) determined by measurement of the kinetics of complex formation and dissociation.

[2] = target: T1, recombinant cynomolgus monkey TREM-1; assay: SPR, Fab immobilised, cynomolgus TREM-1 injected; replicate 2
Description: as §1

[3] = target: T1, recombinant cynomolgus monkey TREM-1; assay: SPR, Fab immobilised, cynomolgus TREM-1 injected; average
Description: as §1

Kd [1]: 24.8 nM
Kd [2]: 24.4 nM
Kd [3]: 24.6 nM
B1: humanized anti-TREM-1 Fab fragment INO-10F-4 (Fab, V domains shown)
VH: EVQLVESGGALVKPGGSLRLSCAASGFNIGNTYIHWVRQAPGKGLEWVGRIDPAGGRTKYAPKVKGRFTISADDSKNTAYLQMNSLKTEDTAVYYCTGHRGGTMDYWGQGTLVTVSS
VL: EIVLTQSPATLSLSPGERATLSCRASQSVSNYGISFLNWYQQKPGQAPRLLIYAAEYRGRGIPARFSGSGSGTDFTLTISSLEPEDFAVYYCQQSSNVPYTFGQGTKVEIK
notes: Fab

Kd [1]: 60.1 nM
Kd [2]: 53.4 nM
Kd [3]: 56.8 nM
B2: humanized anti-TREM-1 Fab fragment INO-10F-6 (Fab, V domains shown)
VH: B1 VH with A79L
VL: B1 VL with G59A
notes: Fab

Kd [2]: 28.5 nM
Kd [3]: 28.3 nM
B3: humanized anti-TREM-1 Fab fragment INO-10F-2 (Fab, V domains shown)
VH: B1 VH with V48I, A61S, K65Q, D73P, D74T
VL: B1 VL with E56S, R58Q, G59K, V98F, Y100W
notes: Fab

Kd [1]: 7.6 nM
Kd [2]: 7.68 nM
Kd [3]: 7.64 nM
B4: humanized anti-TREM-1 Fab fragment INO-10F-3 (Fab, V domains shown)
VH: B1 VH with G30D, V48I, A61D, D74T, R100Y
VL: B1 VL with Q27E, S30D, S96R, N97H
notes: Fab

Kd [1]: 57.9 nM
Kd [2]: 66.6 nM
Kd [3]: 62.2 nM
B5: anti-hTREM-1 Fab fragment INO-10F (Fab, V domains shown)
VH: AVQLQQSVAALVRPGASVKLSCTASGFNIKNTYIHWVKQRPEQGLEWIGRIDPANGNTKYAPKFQGKATITADTSSDTAYLQLSSLTSDDTAIYYCTGHYGSTMDYWGQGTSVTVSS
VL: not shown
notes: Recombinant chimeric Fab (murine variable regions) made in CHO cells and purified on HisTrap Excel; also called INO-10 Fab
